What was measured:
[1] = molecular target: T1, TSLPR-Fc peptide (R&D systems) (UniProt Q9HC73 25-231); test: flow cytometry, CAR T cells stained with TSLPR-Fc then anti-Fc AF647
T1 construct: Bought reagent (R&D systems); also called TSLPR-Fc reagent; not shown: Fc part of the bought reagent
T1 sequence (looked up): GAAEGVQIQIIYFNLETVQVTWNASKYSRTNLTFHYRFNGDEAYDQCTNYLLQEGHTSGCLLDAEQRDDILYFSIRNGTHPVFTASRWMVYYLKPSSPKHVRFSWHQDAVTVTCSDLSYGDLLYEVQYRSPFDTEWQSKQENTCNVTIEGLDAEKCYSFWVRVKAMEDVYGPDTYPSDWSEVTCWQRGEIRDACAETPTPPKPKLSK
Procedure: Flow cytometric analysis was performed to detect the CAR molecule surface expression. Half million of harvested primary T cells were washed and stained with cold AutoMACS buffer supplemented with 0.5% bovine serum albumin (Miltenyi Biotec, Bergisch Gladbach, Germany), and resuspended in 200 ul Running Buffer before acquired by MACSQuant®10 Analyzer (Miltenyi Biotec Bergisch Gladbach, Germany). For CAR surface expression, TSLPR Fc, CD19Fc and CD22Fc peptide (R&D systems, Minneapolis, Minn.) were used followed anti Fc-AF647 (Jackson ImmunoResearch, West Grove, Pa.). T cell subtypes was further identified with anti-CD4 antibody conjugated to VioBlue fluorophore (Miltenyi Biotec Bergisch Gladbach, Germany). Dead cells in all studies were excluded by 7AAD staining (BD Biosciences, San Jose, Calif.). Flow data were analyzed with MACSQuantify software.
Specific detection of each scFv domain within the CAR structure was facilitated by CAR T cell staining with TSLPR-Fc peptide, or CD19-Fc peptide, followed by a secondary staining with anti-Fc AF647-labeled reagent, and fluorescence was detected in the APC channel. In CAR construct D0101, in which CD19 scFv was membrane-proximal and the TSLPR scFv was membrane-distal, the TSLPR scFv was detected at 44% of the transduced cells, and CD19 scFv was detected at 31%. In CAR construct D0102 with the reverse binder orientation (i.e. the TSLPR scFv membrane-proximal, and CD19 scFv membrane-distal), the detection levels were 85% and 75% for scFv TSLPR and CD19, respectively (FIG. 2).

[2] = molecular target: T2, recombinant human CD19 (labeled) (human, UniProt P15391 20-291, limits assumed); test: flow cytometry of yeast-displayed scFv with decreasing amounts of labeled CD19
T2 construct: Fluorescently labeled antigen titrated on yeast; The sorting steps used CD19-Fc/Anti-Hu-Fc, so the labeled antigen may be the Fc fusion; also called labeled CD19; recombinant human CD19 protein
T2 sequence (looked up): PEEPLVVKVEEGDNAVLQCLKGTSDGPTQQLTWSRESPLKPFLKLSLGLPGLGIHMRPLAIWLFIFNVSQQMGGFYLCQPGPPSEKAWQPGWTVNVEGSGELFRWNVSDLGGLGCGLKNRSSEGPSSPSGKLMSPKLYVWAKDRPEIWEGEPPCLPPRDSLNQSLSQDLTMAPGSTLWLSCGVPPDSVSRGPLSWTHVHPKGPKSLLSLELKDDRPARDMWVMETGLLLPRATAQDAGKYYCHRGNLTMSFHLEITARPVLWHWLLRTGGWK
Procedure: To increase the affinity of m19217, a yeast-display m19217 mutant scFv library was created by using error-prone PCR to create random point mutations in scFv gene sequences. After electroporation, the resulting mutant library was then grown overnight at 30° C. for 16 hours in SDCAA medium and then switched into SGCAA medium at 30° C. for another 16 hours. The mutant library was then sorted through MACS (immunomagentic column, Miltenyi Biotec) with CD19-Fc as the capture antigen to downsize the library and to increase the population of mutants that could bind to CD19-Fc. The strongest binders were then selected by double staining the pools with Anti-c-Myc-Alexa 488 and CD19-Fc/Anti-Hu-Fc and selecting for the binders that had the highest binding affinities as well as c-Myc expression levels. This process was then repeated two more times, until flow cytometry of yeast particles with fluorescently tagged antigen yielded average binding affinities of the mutant pools that were increased over the starting construct. Binding affinities were estimated by flow cytometry of yeast pools using decreasing amounts of labeled CD19.

| Binder | percent of transduced T cells stained by antigen-Fc [1] [%] | EC50 [2] [µg/mL] |
| --- | --- | --- |
| D0102 (EF-1a-CD19 (19217_1)-TSLPR CD8 BBz) (other, also called CAR 19-TSLPR BBz; tandem D0102 CD19×TSLPR CAR) EVQLVQSGAEVKKPGASVKVSCKASGYTFTSYYMHWVRQAPGQGLEWMGLINPSGGSTSYAQKFQGRVTMTRDTSTSTVYMELSSLRSEDTAVYYCARSDRGITATDAFDIWGQGTMVTVSSGGGGSGGGGSGGGGSQSVLTQPPSVSVAPGRMAKITCGGSDIGNKNVHWYQQKPGQAPVLVVYDDYDRPSGIPERFSGSNSGDAATLTISTVEVGDEADYFCQVWDGSGDPYWMFGGGTQLTVLGGGGGSGGGGSGGGGSGGGGSGGGGSQVTLKESGPGILKPSQTLSLTCSFSGFSLSTSGMGVGWIRQPSGKGLEWLAHIWWDDDKYYNPSLKSQLTISKDTSRNQVFLKITSVDTADTATYYCSRRPRGTMDAMDYWGQGTSVTVSSGGGGSGGGGSGGGGSDIVMTQAASSLSASLGDRVTISCRASQDISKYLNWYQQKPDGTVKLLIYYTSRLHSGVPSRFSGSGSGTDYSLTIRNLEQEDIATYFCQQVYTLPWTFGGGTKLEIKAAATTTPAPRPPTPAPTIASQPLSLRPEACRPAAGGAVHTRGLDFACDIYIWAPLAGTCGVLLLSLVITLYCKRGRKKLLYIFKQPFMRPVQTTQEEDGCSCRFPEEEEGGCELRVKFSRSADAPAYQQGQNQLYNELNLGRREEYDVLDKRRGRDPEMGGKPRRKNPQEGLYNELQKDKMAEAYSEIGMKGERRRGKGHDGLYQGLSTATKDTYDALHMQALPPR | 85 |  |
| human anti-CD19 ScFv binder M19217-1 (scFv, V domains shown, also called scFv of LTG2065) VH: EVQLVQSGAEVKKPGASVKVSCKASGYTFTSYYMHWVRQAPGQGLEWMGLINPSGGSTSYAQKFQGRVTMTRDTSTSTVYMELSSLRSEDTAVYYCARSDRGITATDAFDIWGQGTMVTVSS VL: QSVLTQPPSVSVAPGRMAKITCGGSDIGNKNVHWYQQKPGQAPVLVVYDDYDRPSGIPERFSGSNSGDAATLTISTVEVGDEADYFCQVWDGSGDPYWMFGGGTQLTVLG |  | < 0.01 |
| human anti-CD19 ScFv binder M19217-23 (scFv) EVQLVQSGAEVKKPGASVKVSCKASGYTFTGYYMHWVRQAPGQGLEWIGLINPSGGSTSYEQKFQGRVAMTRDTSTSTVYMELSSLRSEDTAVYYCARSDRGITATDAFDIWGQGTMVTVSSGGGGSGGGGSGGGGSQSVLTQPPSVSVAPGQTAKITCGGSDIGDKNVHWYQQKPGQAPVLVVYDDYDRPSGIPERFSGSNSGDAATLTISTVEVGDEADYFCQVWDGIGDPYWVFGGGTQLTVLG |  | < 0.01 |
| D0101 (EF-1a-TSLPR-CD19 (19217_1) CD8 BBz) (other, also called CAR TSLPR-19 BBz; tandem D0101 TSLPR×CD19 CAR) QVTLKESGPGILKPSQTLSLTCSFSGFSLSTSGMGVGWIRQPSGKGLEWLAHIWWDDDKYYNPSLKSQLTISKDTSRNQVFLKITSVDTADTATYYCSRRPRGTMDAMDYWGQGTSVTVSSGGGGSGGGGSGGGGSDIVMTQAASSLSASLGDRVTISCRASQDISKYLNWYQQKPDGTVKLLIYYTSRLHSGVPSRFSGSGSGTDYSLTIRNLEQEDIATYFCQQVYTLPWTFGGGTKLEIKGGGGSGGGGSGGGGSGGGGSGGGGSEVQLVQSGAEVKKPGASVKVSCKASGYTFTSYYMHWVRQAPGQGLEWMGLINPSGGSTSYAQKFQGRVTMTRDTSTSTVYMELSSLRSEDTAVYYCARSDRGITATDAFDIWGQGTMVTVSSGGGGSGGGGSGGGGSQSVLTQPPSVSVAPGRMAKITCGGSDIGNKNVHWYQQKPGQAPVLVVYDDYDRPSGIPERFSGSNSGDAATLTISTVEVGDEADYFCQVWDGSGDPYWMFGGGTQLTVLGAAATTTPAPRPPTPAPTIASQPLSLRPEACRPAAGGAVHTRGLDFACDIYIWAPLAGTCGVLLLSLVITLYCKRGRKKLLYIFKQPFMRPVQTTQEEDGCSCRFPEEEEGGCELRVKFSRSADAPAYQQGQNQLYNELNLGRREEYDVLDKRRGRDPEMGGKPRRKNPQEGLYNELQKDKMAEAYSEIGMKGERRRGKGHDGLYQGLSTATKDTYDALHMQALPPR | 44 |  |

Continued, values first:

| percent of transduced T cells stained by antigen-Fc [1] [%] | EC50 [2] [µg/mL] | Binder |
| --- | --- | --- |
|  | 0.5 | human anti-CD19 ScFv binder M19217 (founder clone) (scFv) EVQLVQSGAEVKKPGASVKVSCKASGYTFTSYYMHWVRQAPGQGLEWMGIINPSGGSTSYAQKFQGRVTMTRDTSTSTVYMELSSLRSEDTAVYYCARSDRGITATDAFDIWGQGTMVTVSSGGGGSGGGGSGGGGSQSVLTQPPSVSVAPGQTAKITCGGSDIGNKNVHWYQQKPGQAPVLVVYDDYDRPSGIPERFSGSNSGDAATLTISTVEVGDEADYFCQVWDSSGDPYWVFGGGTQLTVLG |
|  | < 0.01 | human anti-CD19 ScFv binder M19217-38 (scFv) EVQLVQSGAEVKRPGASVKVSCKASGYTFTSYYMHWVRQAPGRGLEWMGLINPSGGSTSYAQEFQGRVTMTRDMSTSTVYMELSSLRSEDTAVYYCARSDRGISATDAFDIWGQGTMVTVSSGGGGSGGGGSGGGGSQSVLTQPPSVSVAPGQMAKITCGGSDIGNKNVHWYQQKPGQAPVLVVYDDYNRPSGIPERFSGSNSGDAATLTISTVEVGDEADYFCQVWDGSGDPYWVFGGGTQLTDLG |
|  | < 0.01 | human anti-CD19 ScFv binder M19217-7 (scFv) EVQLVQSGAEVNKPGASVKVSCKASGYTFTSYYMHWVRQAPGQGLEWMGMINPSGGSTSYAQKFQGRVTMTRDTSTSTVYMELSSLRSEDTAVYYCARSDRGITSTDAFDIWGQGTMVTVSSGGGGSGGGGSGGGGSQSVLTQPPSVSLAPGQTAKITCGGSDIGNKNVHWYQQKPGQAPVLVVYDDYNRPSGIPERFSGSNSGDSATLTISTVEVGDEADYFCQVWDGSGDPYWVFGGGTQLTVLG |
|  | < 0.01 | human anti-CD19 ScFv binder M19217-40 (scFv) EVQLVQSGAEVKRPGASVKVSCKASGYTFTSYYMHWVRQAPGQGLVWMGLINPSGGSTSYAQKFQGRVTMTRDTSTSTVYMELSSLRSEDTAVYYCARSDRGITATDAFDIWGQGTMVTVSSGGGGSGGGGSGGGGSQSVLTQPPSVSVAPGQTAKTTCGGSDIGNKNVHWYQQKPGQAPVLVVYDDYDRPSGIPERFSGSNSGDAATLTISTVEVGDEADYVCQVWDGSGDPYWVFGGGTQLTVLG |
|  | < 0.01 | human anti-CD19 ScFv binder M19217-2 (scFv) EVQLVQSGAEVKKPGASVKVSCKASGYTFTSYYMHWVRQAPGQGFEWMGLINPSGSSTSYAQKFQGRVTMTRDTSTSTVYMELSNLRSEDTAVYYCARSDRGITATDAFDIWGQGTMVTVSSGGGGSGGGGSGGGGSQSVLTQPPSVPVAPGQTAKIICGGSDIGNKNVHWYQQKPGQAPVLVVYDDYDRPSGIPERFSGSNSGDAATLTISTVEVGDEADYFCQVWDGSGDPYWVFGGGTQLTVLG |
|  | < 0.01 | human anti-CD19 ScFv binder M19217-29 (scFv) EVQLVQSGAEVKKPGASVKVSCKASGYTFTSYYMHWVRQAPGQGLEWMGMINPSGGSTSYAQKFQGRVTMTRDTSTSTVYMELSSLRSEDTAVYYCARSDRGITATDAFDIWGQGTMVTVSSGGGGSGGGGSGGGGSQSVLTQPPSVSVAPGQTAKITCGGSDIGNKNAHWYQQKPGQAPVLVVYDDYDRPSGISERFSGSNSGDAATLTISTVEVGDEADYFCQVWDGSGDPFWVFGGGTQLTVLG |

— patent US20210379110A1 (LENTIGEN TECHNOLOGY, published 2021)
